According to the supplement of paper PMC5998384:

How the values were obtained:
HeLa Kyoto [1] = assay: solubility in G1/S (NP-40 vs SDS abundance) (log2 ratio); higher = more soluble; settings: cell cycle stage: G1/S
HeLa Kyoto [2] = assay: solubility change mitosis vs G1/S (difference of NP-40 vs SDS log2 ratios) (log2 ratio difference); higher = more soluble in mitosis
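Wherever solubility change mitosis vs G1/S (difference of NP-40 vs SDS log2 ratios) is given: synchronized HeLa Kyoto cells (double thymidine block for G1/S, nocodazole release for mitosis), protein amounts in NP-40 versus SDS lysates quantified by mass spectrometry, three biological replicates.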
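Wherever solubility in G1/S (NP-40 vs SDS abundance) is given: HeLa Kyoto cells arrested at G1/S by double thymidine block, proteins quantified by TMT10plex mass spectrometry in mild NP-40 versus SDS extracts, three biological replicates.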

Substance | solubility in G1/S (log2) (HeLa Kyoto [1]) | solubility change mitosis (log2) (HeLa Kyoto [2])
MEELSSVGEQVFAAECILSKRLRKGKLEYLVKWRGWSSKHNSWEPEENILDPRLLLAFQKKEHEKEVQNRKRGKRPRGRPRKLTAMSSCSRRSKLKEPDAPSKSKSSSSSSSSTSSSSSSDEEDDSDLDAKRGPRGRETHPVPQKKAQILVAKPELKDPIRKKRGRKPLPPEQKATRRPVSLAKVLKTARKDLGAPASKLPPPLSAPVAGLAALKAHAKEACGGPSAMATPENLASLMKGMASSPGRGGISWQSSIVHYMNRMTQSQAQAASRLALKAQATNKCGLGLDLKVRTQKGELGMSPPGSKIPKAPSGGAVEQKVGNTGGPPHTHGASRVPAGCPGPQPAPTQELSLQVLDLQSVKNGMPGVGLLARHATATKGVPATNPAPGKGTGSGLIGASGATMPTDTSKSEKLASRAVAPPTPASKRDCVKGSATPSGQESRTAPGEARKAATLPEMSAGEESSSSDSDPDSASPPSTGQNPSVSVQTSQDWKPTRSLIEHVFVTDVTANLITVTVKESPTSVGFFNLRHY [CBX2] | -0.63 | 0.268
MAVTLSLLLGGRVCAAVTRCGFATRGVAGPGPIGREPDPDSDWEPEERELQEVESTLKRQKQAIRFQKIRRQMEAPGAPPRTLTWEAMEQIRYLHEEFPESWSVPRLAEGFDVSTDVIRRVLKSKFLPTLEQKLKQDQKVLKKAGLAHSLQHLRGSGNTSKLLPAGHSVSGSLLMPGHEASSKDPNHSTALKVIESDTHRTNTPRRRKGRNKEIQDLEESFVPVAAPLGHPRELQKYSSDSESPRGTGSGALPSGQKLEELKAEEPDNFSSKVVQRGREFFDSNGNFLYRI [NGRN] | 0.784 | 0.276
MEEKPSGPIPDMLATAEPSSSETDKEVLSPAVPAAAPSSSMSEEPGPEQAATPPVWERGGAGGMQQGSSPAPDSCQPGPGPSPGLTSIVSGTSEDLRPPRRRPPPGKQIPCSSPGCCLSFPSVRDLAQHLRTHCPPTQSLEGKLFRCSALSCTETFPSMQELVAHSKLHYKPNRYFKCENCLLRFRTHRSLFKHLHVCAEHAQSPAPPPPPALDREPPAPERPPEVDPASAPGLPFPLLEPFTTPAPAPTGPFLPYLNPAPFGLSPPRLRPFLAAAPGPPASSAAVWKKSQGAGSSPRRPQGGSDAPSGACR [ZNF414] | -0.217 | -0.445
SIPA1L2 | -0.433 | 0.275
MSDRKAVIKNADMSEDMQQDAVDCATQAMEKYNIEKDIAAYIKKEFDKKYNPTWHCIVGRNFGSYVTHETKHFIYFYLGQVAILLFKSG [DYNLL2] | -0.415 | 0.249
MMQGNTCHRMSFHPGRGCPRGRGGHGARPSAPSFRPQNLRLLHPQQPPVQYQYEPPSAPSTTFSNSPAPNFLPPRPDFVPFPPPMPPSAQGPLPPCPIRPPFPNHQMRHPFPVPPCFPPMPPPMPCPNNPPVPGAPPGQGTFPFMMPPPSMPHPPPPPVMPQQVNYQYPPGYSHHNFPPPSFNSFQNNPSSFLPSANNSSSPHFRHLPPYPLPKAPSERRSPERLKHYDDHRHRDHSHGRGERHRSLDRRERGRSPDRRRQDSRYRSDYDRGRTPSRHRSYERSRERERERHRHRDNRRSPSLERSYKKEYKRSGRSYGLSVVPEPAGCTPELPGEIIKNTDSWAPPLEIVNHRSPSREKKRARWEEEKDRWSDNQSSGKDKNYTSIKEKEPEETMPDKNEEEEEELLKPVWIRCTHSENYYSSDPMDQVGDSTVVGTSRLRDLYDKFEEELGSRQEKAKAARPPWEPPKTKLDEDLESSSESECESDEDSTCSSSSDSEVFDVIAEIKRKKAHPDRLHDELWYNDPGQMNDGPLCKCSAKARRTGIRHSIYPGEEAIKPCRPMTNNAGRLFHYRITVSPPTNFLTDRPTVIEYDDHEYIFEGFSMFAHAPLTNIPLCKVIRFNIDYTIHFIEEMMPENFCVKGLELFSLFLFRDILELYDWNLKGPLFEDSPPCCPRFHFMPRFVRFLPDGGKEVLSMHQILLYLLRCSKALVPEEEIANMLQWEELEWQKYAEECKGMIVTNPGTKPSSVRIDQLDREQFNPDVITFPIIVHFGIRPAQLSYAGDPQYQKLWKSYVKLRHLLANSPKVKQTDKQKLAQREEALQKIRQKNTMRREVTVELSSQGFWKTGIRSDVCQHAMMLPVLTHHIRYHQCLMHLDKLIGYTFQDRCLLQLAMTHPSHHLNFGMNPDHARNSLSNCGIRQPKYGDRKVHHMHMRKKGINTLINIMSRLGQDDPTPSRINHNERLEFLGDAVVEFLTSVHLYYLFPSLEEGGLATYRTAIVQNQHLAMLAKKLELDRFMLYAHGPDLCRESDLRHAMANCFEALIGAVYLEGSLEEAKQLFGRLLFNDPDLREVWLNYPLHPLQLQEPNTDRQLIETSPVLQKLTEFEEAIGVIFTHVRLLARAFTLRTVGFNHLTLGHNQRMEFLGDSIMQLVATEYLFIHFPDHHEGHLTLLRSSLVNNRTQAKVAEELGMQEYAITNDKTKRPVALRTKTLADLLESFIAALYIDKDLEYVHTFMNVCFFPRLKEFILNQDWNDPKSQLQQCCLTLRTEGKEPDIPLYKTLQTVGPSHARTYTVAVYFKGERIGCGKGPSIQQAEMGAAMDALEKYNFPQMAHQKRFIERKYRQELKEMRWEREHQEREPDETEDIKK [DROSHA] | -0.744 | 0.203
MSKKKGLSAEEKRTRMMEIFSETKDVFQLKDLEKIAPKEKGITAMSVKEVLQSLVDDGMVDCERIGTSNYYWAFPSKALHARKHKLEVLESQLSEGSQKHASLQKSIEKAKIGRCETEERTRLAKELSSLRDQREQLKAEVEKYKDCDPQVVEEIRQANKVAKEAANRWTDNIFAIKSWAKRKFGFEENKIDRTFGIPEDFDYID [MND1] | 0.61 | -0.05
MAAQAAAAAQAAAAQAAQAEAADSWYLALLGFAEHFRTSSPPKIRLCVHCLQAVFPFKPPQRIEARTHLQLGSVLYHHTKNSEQARSHLEKAWLISQQIPQFEDVKFEAASLLSELYCQENSVDAAKPLLRKAIQISQQTPYWHCRLLFQLAQLHTLEKDLVSACDLLGVGAEYARVVGSEYTRALFLLSKGMLLLMERKLQEVHPLLTLCGQIVENWQGNPIQKESLRVFFLVLQVTHYLDAGQVKSVKPCLKQLQQCIQTISTLHDDEILPSNPADLFHWLPKEHMCVLVYLVTVMHSMQAGYLEKAQKYTDKALMQLEKLKMLDCSPILSSFQVILLEHIIMCRLVTGHKATALQEISQVCQLCQQSPRLFSNHAAQLHTLLGLYCVSVNCMDNAEAQFTTALRLTNHQELWAFIVTNLASVYIREGNRHQEVLYSLLERINPDHSFPVSSHCLRAAAFYVRGLFSFFQGRYNEAKRFLRETLKMSNAEDLNRLTACSLVLLGHIFYVLGNHRESNNMVVPAMQLASKIPDMSVQLWSSALLRDLNKACGNAMDAHEAAQMHQNFSQQLLQDHIEACSLPEHNLITWTDGPPPVQFQAQNGPNTSLASLL [MAU2] | -0.154 | -0.0035
MERMNWLSRLASRGPGHRIPQGANLQTPVMADPETCLMVFKNHWSQVVRILERQGPRAAPGGADDLSAVRNHTYQMLTLLAEDRAVPSAPTGPGPLLEFALHEDLLTRVLTWQLQWDELGDGVEERRAEQLKLFEMLVSEARQPLLRHGPVREALLTLLDACGRPVPSSPALDEGLVLLLSQLCVCVAQEPSLLEFFLQPPPEPGAAPRLLLFSRLVPFVHREGTLGQQARDALLLLMALSAGSPTVGRYIADHSYFCPVLATGLSALYSSLPRKIEVPGDDWHCLRREDWLGVPALALFMSSLEFCNAVIQVAHPLVQKQLVDYIHNGFLVPVMGPALHKTSVEEMIASTAYLELFLRSISEPALLRTFLRFLLLHRHDTHTILDTLVARIGSNSRLCMVSLSLFRTLLNLSCEDVLLQLVLRYLVPCNHVMLSQKPAVRDVDLYGRAADKFLSLIPRCCRHHAPSPPRPEHASWARGPGSPSVDSSSVTTVPRPSTPSRLALFLRQQSLGGSESPGPAPCSPGLSASPASSPGRRPTPAEEPGELEDNYLEYLREARRGVDRCVRACRTWSAPYDGERPSPEPSPFGSRTKKRSLLPEEDRNNVGEGEEEELGRRGRAGGAGEGPGHLPPPQLNGVPGSWPEGAKKVRLVPKEGAGELLEGISEGMAGLEGFGQELRELEVALSNGGTGSESPLEPPLPLEEEEAYESFTCPPEPPGPFLSSPLRTLNQLPSQPFTGPFMAVLFAKLENMLQNSVYVNFLLTGLVAQLACHPQPLLRSFLLNTNMVFQPSVKSLLQVLGSVKNKIENFAASQEDFPALLSKAKKYLIARGKLDWAEGPAAGPAPRRSDPLVKSRRPSLGELLLRHAHSPTRARQAAQLVLQPGRDGAGLGLSGGSPGASTPVLLTRGGAPERQGEALRVKNAVYCAVIFPEFLKELAAISQAHAVTSPFLLETSEEGSGPLISGCGPLNP [FAM160A2] | 0.177 | 0.0167
MWRGRAGALLRVWGFWPTGVPRRRPLSCDAASQAGSNYPRCWNCGGPWGPGREDRFFCPQCRALQAPDPTRDYFSLMDCNRSFRVDTAKLQHRYQQLQRLVHPDFFSQRSQTEKDFSEKHSTLVNDAYKTLLAPLSRGLYLLKLHGIEIPERTDYEMDRQFLIEIMEINEKLAEAESEAAMKEIESIVKAKQKEFTDNVSSAFEQDDFEEAKEILTKMRYFSNIEEKIKLKKIPL [HSCB] | 0.296 | 0.307
MDSLDHMLTDPLELGPCGDGHGTRIMEDCLLGGTRVSLPEDLLEDPEIFFDVVSLSTWQEVLSDSQREHLQQFLPQFPEDSAEQQNELILALFSGENFRFGNPLHIAQKLFRDGHFNPEVVKYRQLCFKSQYKRYLNSQQQYFHRLLKQILASRSDLLEMARRSGPALPFRQKRPSPSRTPEEREWRTQQRYLKVLREVKEECGDTALSSDEEDLSSWLPSSPARSPSPAVPLRVVPTLSTTDMKTADKVELGDSDLKIMLKKHHEKRKHQPDHPDLLTGDLTLNDIMTRVNAGRKGSLAALYDLAVLKKKVKEKEEKKKKKIKTIKSEAEDLAEPLSSTEGVAPLSQAPSPLAIPAIKEEPLEDLKPCLGINEISSSFFSLLLEILLLESQASLPMLEERVLDWQSSPASSLNSWFSAAPNWAELVLPALQYLAGESRAVPSSFSPFVEFKEKTQQWKLLGQSQDNEKELAALFQLWLETKDQAFCKQENEDSSDATTPVPRVRTDYVVRPSTGEEKRVFQEQERYRYSQPHKAFTFRMHGFESVVGPVKGVFDKETSLNKAREHSLLRSDRPAYVTILSLVRDAAARLPNGEGTRAEICELLKDSQFLAPDVTSTQVNTVVSGALDRLHYEKDPCVKYDIGRKLWIYLHRDRSEEEFERIHQAQAAAAKARKALQQKPKPPSKVKSSSKESSIKVLSSGPSEQSQMSLSDSSMPPTPVTPVTPTTPALPAIPISPPPVSAVNKSGPSTVSEPAKSSSGVLLVSSPTMPHLGTMLSPASSQTAPSSQAAARVVSHSGSAGLSQVRVVAQPSLPAVPQQSGGPAQTLPQMPAGPQIRVPATATQTKVVPQTVMATVPVKAQTTAATVQRPGPGQTGLTVTSLPATASPVSKPATSSPGTSAPSASTAAVIQNVTGQNIIKQVAITGQLGVKPQTGNSIPLTATNFRIQGKDVLRLPPSSITTDAKGQTVLRITPDMMATLAKSQVTTVKLTQDLFGTGGNTTGKGISATLHVTSNPVHAADSPAKASSASAPSSTPTGTTVVKVTPDLKPTEASSSAFRLMPALGVSVADQKGKSTVASSEAKPAATIRIVQGLGVMPPKAGQTITVATHAKQGASVASGSGTVHTSAVSLPSMNAAVSKTVAVASGAASTPISISTGAPTVRQVPVSTTVVSTSQAGKLPTRITVPLSVISQPMKGKSVVTAPIIKGNLGANLSGLGRNIILTTMPAGTKLIAGNKPVSFLTAQQLQQLQQQGQATQVRIQTVPASHLQQGTASGSSKAVSTVVVTTAPSPKQAPEQQ [NFRKB] | -0.0172 | 0.184
